Source: the RNAGym collection of RNA variant scans (doi:10.1073/pnas.2313332121)

B1: TPR t1 (parent)
chain: GACCAAUCUGCCCUCAGAGCUCGAGAACAUCUUCGGAUGCAGAGGAGGCAGGCUUCGGUGGCGCGAUAGCGCCAACGUCCUCAACCUCCAAUGCAUCCCACCACAUGAUGAUGCCUGAAGAGCCUUGGUUUUUUG

Variants of: B1
Test: polymerase ribozyme fitness, log enrichment relative to wild type (log ratio); higher = more active; in vitro selection for triplet polymerase activity
Summary of the method: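 Fitness measures genotype enrichment against wild-type enrichment on a logarithmic scale, with inverse-variance-weighted averaging of replicates. The logarithm is base 2, and genotypes were kept only with ≥10 input reads and ≥1 read per output in Illumina sequencing. The sequenced libraries came from one triplicate in vitro selection round, including frozen incubation at −7 °C, of PCR-built, transcribed mutant libraries of each subunit of a heterodimeric triplet polymerase ribozyme.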

Variant | polymerase ribozyme fitness (log ratio)
C28G U54G C62U | -3.83
A29G C101A | -3.99
C28U U78C C101U | -2.49
C28U A37C G71U | -3.01
U33C A46G C64G C86A C115G | -5.34
A29U G58A C115U | -2.3
A29C C53U C80U A90G | -3.07
C28U C40A C124U U130A | -3.36
C28G U96A C97G G117C | -8.14
U32A C73A C97U | -6.06
A29G G120U | -0.745
A29G G45U C64U | -2.76
U30G A43U A91U G113U | -6.55
C31U U54A | -5.03
U32C G71C C79G U81C G113A | -3.36
U33G G60U C85G | -7.61
C28U G42U G44U G61U | -4.27
C28U C123U | -0.507
A29C A84G U87A C104U C124G | -1.28
C28G C86A G120C | -2.11
U32C U81G | -3.83
A29G C49G G71A U125G | -3.8
C31U U59C G120U G127C | -5.99
A29U C49G C101G C124G | -3.93

Variant | polymerase ribozyme fitness (log ratio)
C28G G44A A46G A90C | -4.5
C31G C98G G110U | -6.25
C31U C40U G45A | -6.8
U30C C88U | -2.37
A29U A83C C124A | -0.511
U32A G42A U54C U116C G128A | -6.04
C31U C62U | -5.22
A29U A37U C40U G71C | -2.78
U32C A84U | -0.174
U33G U55A C72G | -6.25
A29U A46G U125A | -2.44
C28U C49U | -3.27
A29G C123A | -0.494
C34A C40U C85G | -4.94
U30C G47U C53U U54A U133A | -4.89
U32C G52A G61A U125A | -0.743
C28U C124A U125A | -0.0946
U32C C40U C86G | -2.2
U30C C101U A111C | -3.68
A29U C94A A111U | -0.272
A29U A50C C98U | -3.99
A29G A83C | -1.32
A29G U32C A50U | -1.45
C31A G77C U112C | -4.36

Variant | polymerase ribozyme fitness (log ratio)
U32A G57U | -4.02
C31A C98U | -7.02
C28U U125A | -2.25
C28U C62A C124G U133G | -2.2
U32C G52A U78C C101A | -1.13
C28G G44C G52U C73A G110A | -2.09
C28U G48U U78A | -3.25
C31G G44U G52U C62U C85U C115U G117A | -7.35
U33A C56G | -4.38
A29U U59G G120C | -1.14
A29U A75U A83G U112G U133C | -2.19
U33G C49G G57A C62U A84C C88G G93A G110C | -7.42
U33A G61A U87A U133G | -4.05
A29G A37C A74G A111C | -1.06
A29G G61A C89A | -2.41
U32A C56G G77U C99A C123U U125G | -5.41
U30C C97U | -3.64
C28U G45A C70U G113A A118U U131C | -4.94
C34A C70U C79U | -4.29
A29G G69U A95G | -1
C28U G57U | -1.3
C34A A75G | -2.34
C28U A74U | -2.33
U30A C56A C70U | -7.2

Variant | polymerase ribozyme fitness (log ratio)
U32G C53A C64U U109G | -7.34
U32G U33C A43U A91U C124U | -5.75
C28U C72A | -2.49
A29U C98A U109G | -4.46
C31A A95U | -5.15
A29U U78C | -1.79
U32C C104U U112G | 0.174
C28U A41G A121C | -0.919
A29U C62G U106A | -2.35
C34A C40U G48C C114U G120C | -3.6
C28U C70U C88U | -3.74
C31G C85U C123U | -5.56
A29C A41C G61U | -3.33
A29U C72U C98U A111C | -3.77
A29U A43G G61U G113A C123A U126A U134C | -3.47
C28U G36C C56U U81C G122U C124U U132C | -2.46
C28U A105U U112C | -4.9
C28G U32C | -2.94
A29U G35A C56U C72U U96A C98G C115G | -7.16
A29G G44U | -2.04
U33A G63A | -6.46
U33G G47U C72U G120A | -6.26
U32A G47U C72U A83U | -5.74
A29U G63U | -2.58

Variant | polymerase ribozyme fitness (log ratio)
A29G G120U U132A | -1.63
U32C A90G C97A U130G | -5.05
C31U G47U U112C G120C | -4.82
U33G G65U C72G A111C A118U | -6.82
C28U U38A C79U C104A C124A U133G | -4.38
U32G A37G G113C | -5.08
U30G C49G G113C | -5.95
U33A G44A G51A G63A A66G A74U A111U | -7.25
U33C C49A | -5.36
C28G G113C | -6.23
A29U C89U A119U | -3.93
A29G C70U G93U | -3
C34A C64G | -6.42
U30C C72A | -2.24
A29G A74U U109A C114U | -4.26
C28U U32C G71A | -2.59
U33G C70G G113U | -6.56
C31A C40U A50U G60A C101A U106A C115U A119G | -6.82
U32C A50G C79U C88U C114A G122A | -2.69
C28U C73U U81A U106C | -3.5
A29C C56G C73A A119G | -3.16
C31G G120A | -5.69
C31G G120C | -5.91
C28U G39A G45A G120A | -2.28

Variant | polymerase ribozyme fitness (log ratio)
A29G C70G G120A | -2.72
C28U G113A | -2
C28U G113C | -3.57
U33C U131A | -4.45
A29G A43G G107U C124U | -6.92
A29G G71A G120U U132A | -2.06
C31U G57C U106A | -0.497
C31G G61C | -7.02
C31U G69U U78C A118G | -3.16
U32G U33C A43U A91U | -6.04
A29C C62A C124G U129C | -3.09
C31U G36C G61A | -4.05
U30C G48U C73A C82A | -3.73
U33G G128A | -6.19
U33A C82A | -5.5
C28G U32C A91U C114U A119G | -6.71
U32G C62G G120U | -8.14
U33G C104U C123G | -4.29
A29G G63U G120C | -1.96
A29G A41U A46C G63C | -5.41
A29G C53G A95G | -2.04
C28U U129A | -3.1
U32C G69C G128C | -4.73
C31G G51U C97A C124U | -6.07

Variant | polymerase ribozyme fitness (log ratio)
C31G U33A C64A G120C | -6.19
C28U G60U | -1.24
C28U G60A | -2.05
U32C C53A C101A G120A | -0.18
A29U A46G C88U C97G | -4.71
C31U C70U C72U | -5.69
C28U G110U | -1.44
C28G G117A | -4.12
C31G C56A G60U U109A | -7.12
U32C A43U C123A | -1.31
U30C G48C C64U U81A U87A C124A | -4.9
U33G G47C G61C C80A U112A U116C A119U | -6.76
A29U C115A | -1.59
U33A C56G G69U | -2.45
A29C C62U C94A | -3.98
C28U G52U | -2.88
A29G G60A | -1.42
A29G G60C | -1.31
U32C C80U A83U C123G U130G | -1.77
U33G U87A | -6.14
C28G G63A C73U | -3.78
C28U A50U C70A U106A G110A C114A | -5.71
U33A C64U U87A | -4.27
